Results from article PMC2148182 (The Journal of Cell Biology, 1998).
Where two headings read alike, the source gives them in different places.

Columns and labels:
yeast actin monomers [1] = molecular target: T1, yeast actin monomers (yeast (S. cerevisiae), UniProt P60010 1-375); experiment: co-sedimentation
yeast actin monomers [2] = molecular target: T1, yeast actin monomers; experiment: co-sedimentation; remark: listed apart in the source

B1: full-length twinfilin (yeast, recombinant) (natural protein)
chain: MATQSGIVAEQALLHSLNENLSADGIVIIIAKISPDSTSVHQTQVARSFEELVQLASQEREPLYIFYKPEGLDKYFFVSFIPDGSPVRSRMLYASTKNTLARQVGSNSLSTEQPLITDAQDLVDLKNFDSARPAGQNKPLTHDEEMQIEINKQQALLRKNTSVKLVSQDSASPLSLTFRVNSEKPINEILDSEGKNLIIFQIDPSNETIQIVQSDTCPSVDELYIDLPGPSYTIFRQGDSSFFIYSCPSGSKVKDRMIYASNKNGFINYLKNDQKIAFSKVVEIGDFVELDKSLLMATNKEDSLDHGSNPDLPNKSNLKFNKPKGPLRKRRT
stoichiometry N (yeast actin monomers [1]): 1 twinfilin:actin
stoichiometry N (yeast actin monomers [2]): ~1 twinfilin:actin
